Holding throughout (assay): EMSA
For data set [1], the system named is XRCC1 219-415 (CDB) (Homo sapiens). The note with it: EMSA: 5 nM DNA, 12 mM Tris pH 8.0, 100 mM NaCl, 20 mM KCl, 3 mM MgCl2, 1 mM EDTA, 0.1% CHAPS, 10 mM 2-mercaptoethanol, 8.5% glycerol, BSA (0.02 mg/mL), room …. A general note: In EMSA bound probe runs differently from free probe, usually more slowly.
Data set [2] deals with XRCC1 full length (Homo sapiens). The note with it: EMSA: 5 nM DNA, 12 mM Tris pH 8.0, 100 mM NaCl, 20 mM KCl, 3 mM MgCl2, 1 mM EDTA, 0.1% CHAPS, 10 mM 2-mercaptoethanol, 8.5% glycerol, BSA (0.02 mg/mL), room ….
Data set [3] concerns XRCC1 219-633 P1/3-YFP-NLS (Homo sapiens). The note with it: 2 uM protein; EMSA: 5 nM DNA, 12 mM Tris pH 8.0, 100 mM NaCl, 20 mM KCl, 3 mM MgCl2, 1 mM EDTA, 0.1% CHAPS, 10 mM 2-mercaptoethanol, 8.5% glycerol, BSA (0.02 mg/mL), room ….
Data set [4] concerns XRCC1 219-633 (Homo sapiens). Particulars: EMSA: 5 nM DNA, 12 mM Tris pH 8.0, 100 mM NaCl, 20 mM KCl, 3 mM MgCl2, 1 mM EDTA, 0.1% CHAPS, 10 mM 2-mercaptoethanol, 8.5% glycerol, BSA (0.02 mg/mL), room ….

As a reminder, the Kd is the free concentration of one partner at which half of the binding sites on the other are occupied at equilibrium, for simple one-to-one binding. Higher therefore signals a looser complex.

Consider 39 bp duplex, for which the Kd in data set [1] came to 670 nM; in data set [2] it was 620 nM; in data set [4], 700 nM. Moreover, the binding signal (% of wild type) in data set [3] came to 6.

The record behind these values is paper PMC6395731.
